Assay results: patent US20040234498A1 (Genentech, published 2004)

T1: Apo-3 immunoadhesin (Apo-3 ECD fused to hinge and Fc portion of human IgG) (human, UniProt Q93038 25-199)
T1 construct: extracellular domain; also called DR3; wsl-1; not shown: hinge and Fc portion of human IgG, as described for TNFR1 in Ashkenazi et al. 1991
T1 sequence (looked up): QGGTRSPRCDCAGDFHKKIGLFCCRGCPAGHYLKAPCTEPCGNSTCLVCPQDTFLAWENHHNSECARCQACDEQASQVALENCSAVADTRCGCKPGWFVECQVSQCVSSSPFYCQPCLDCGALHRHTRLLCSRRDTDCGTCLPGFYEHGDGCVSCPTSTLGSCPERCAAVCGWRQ

T2: TNFR1 immunoadhesin (TNFR1 ECD fused to hinge and Fc portion of human IgG) (human, UniProt P19438 30-211, limits assumed)
T2 construct: extracellular domain; also called TNFR1-IgG; not shown: hinge and Fc portion of human IgG, as described in Ashkenazi et al. 1991
T2 sequence (looked up): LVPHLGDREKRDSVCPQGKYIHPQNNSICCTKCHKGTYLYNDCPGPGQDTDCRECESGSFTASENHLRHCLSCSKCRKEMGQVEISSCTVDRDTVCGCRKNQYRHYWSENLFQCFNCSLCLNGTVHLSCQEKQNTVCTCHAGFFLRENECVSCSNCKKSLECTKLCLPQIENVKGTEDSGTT

T3: DR4 immunoadhesin (DR4 ECD fused to hinge and Fc portion of human IgG) (human, UniProt O00220 24-239, limits assumed)
T3 construct: extracellular domain; not shown: hinge and Fc portion of human IgG, as described for TNFR1 in Ashkenazi et al. 1991
T3 sequence (looked up): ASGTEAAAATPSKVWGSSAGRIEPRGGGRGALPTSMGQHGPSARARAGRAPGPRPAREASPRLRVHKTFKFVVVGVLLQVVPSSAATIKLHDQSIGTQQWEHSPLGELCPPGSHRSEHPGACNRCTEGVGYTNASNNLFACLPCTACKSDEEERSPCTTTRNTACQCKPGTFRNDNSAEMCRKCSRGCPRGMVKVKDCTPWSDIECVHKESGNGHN

T4: CD95 immunoadhesin (CD95 ECD fused to hinge and Fc portion of human IgG) (human, UniProt P25445 26-173, limits assumed)
T4 construct: extracellular domain; also called Fas-IgG; Fas/Apo1; not shown: hinge and Fc portion of human IgG, as described for TNFR1 in Ashkenazi et al. 1991
T4 sequence (looked up): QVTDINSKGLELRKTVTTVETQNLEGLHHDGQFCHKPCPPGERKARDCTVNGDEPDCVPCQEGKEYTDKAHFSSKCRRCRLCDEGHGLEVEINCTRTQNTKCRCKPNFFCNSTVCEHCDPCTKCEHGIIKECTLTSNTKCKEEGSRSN

T5: TNFR2 immunoadhesin (TNFR2 ECD fused to hinge and Fc portion of human IgG) (human, UniProt P20333 23-257, limits assumed)
T5 construct: extracellular domain; not shown: hinge and Fc portion of human IgG, as described for TNFR1 in Ashkenazi et al. 1991
T5 sequence (looked up): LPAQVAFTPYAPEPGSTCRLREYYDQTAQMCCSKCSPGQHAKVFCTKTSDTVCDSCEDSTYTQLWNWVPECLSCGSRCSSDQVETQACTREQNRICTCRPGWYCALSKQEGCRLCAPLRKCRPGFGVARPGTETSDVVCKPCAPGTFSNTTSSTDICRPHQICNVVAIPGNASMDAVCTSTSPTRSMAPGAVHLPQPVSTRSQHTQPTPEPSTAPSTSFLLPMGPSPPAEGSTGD

T6: human GITR (hGITR), full length, on cells (human, UniProt Q9Y5U5 26-241)
T6 sequence (looked up): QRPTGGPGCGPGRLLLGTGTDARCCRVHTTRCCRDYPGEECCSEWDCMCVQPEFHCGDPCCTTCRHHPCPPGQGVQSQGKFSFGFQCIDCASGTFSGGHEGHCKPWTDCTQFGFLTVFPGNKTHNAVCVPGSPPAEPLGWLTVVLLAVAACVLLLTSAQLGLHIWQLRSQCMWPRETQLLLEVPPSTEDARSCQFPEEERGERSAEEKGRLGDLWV


Columns and labels:
[1] = biological target: T1, Apo-3 immunoadhesin (Apo-3 ECD fused to …); assay: co-precipitation with protein A-sepharose, SDS-PAGE, autoradiography
Description: (§1) A soluble DNA19355 polypeptide was also prepared by expressing the ECD in E. coli cells (as described in Example 3 above). The soluble DNA19355 ECD molecule was then labeled with ¹²⁵I. For comparison, immunoadhesin constructs were also made of the following TNF receptor family members: CD95, DR4, DR5, TNFR1, TNFR2, and Apo-3. CD95, DR4, DR5, TNFR1, TNFR2, and Apo-3 immunoadhesins were prepared by fusing each receptor's ECD to the hinge and Fc portion of human IgG, as described previously for TNFR1 [Ashkenazi et al., Proc. Natl. Acad. Sci., 88:10535-10539 (1991)]. The respective TNF receptor family members are described (and relevant references cited) in the Background of the Invention section.
(§2) For the co-precipitation assay, each immunoadhesin (5 microgram) was incubated with ¹²⁵I-labeled soluble DNA19355 polypeptide (1 microgram) for 1 hour at 24° C., followed by protein A-sepharose for 30 minutes on ice. The reaction mixtures were spun down and washed several times in PBS, boiled in SDS-PAGE buffer containing 20 mM dithiothreitol and then resolved by SDS-PAGE and autoradiography.

[2] = biological target: T7, DR5 immunoadhesin (DR5 ECD fused to hinge and Fc portion of human IgG) (human, UniProt O14763 56-210, limits assumed); assay: as above
T7 construct: extracellular domain; also called Apo-2; not shown: hinge and Fc portion of human IgG, as described for TNFR1 in Ashkenazi et al. 1991
Description: as §1, §2

[3] = biological target: T2, TNFR1 immunoadhesin (TNFR1 ECD fused to …); assay: as above
Description: as §1, §2

[4] = biological target: T3, DR4 immunoadhesin (DR4 ECD fused to …); assay: as above
Description: as §1, §2

[5] = biological target: T4, CD95 immunoadhesin (CD95 ECD fused to …); assay: as above
Description: as §1, §2

[6] = biological target: T5, TNFR2 immunoadhesin (TNFR2 ECD fused to …); assay: as above
Description: as §1, §2

[7] = biological target: T6, human GITR (hGITR), full length, on …; assay: cell-based or functional assay
[8] = biological target: T2, TNFR1 immunoadhesin (TNFR1 ECD fused to …); assay: FACS on HUVEC cells (endogenous DNA19355 transcripts)
Description: The DNA19355 polypeptide was identified in a human umbilical vein endothelial cell (HUVEC) library, and the DNA19355 polypeptide transcripts are readily detectable in HUVEC by RT-PCR (data not shown). […] HUVEC cells were purchased from Cell Systems (Kirkland, Wash.) and grown in a 50:50 mix of Ham's F12 and Low Glucose DMEM media containing 10% fetal bovine serum, 2 mM L-glutamine, 10 mM Hepes, and 10 ng/ml basic FGF. Cells were FACS sorted with PBS, hGITR-IgG, TNFR1-IgG or Fas-IgG as a primary antibody and goat anti-human F(ab′)2 conjugated to phycoerythrin (CalTag, Burlingame, Calif.).

| Binder | binding result [1] | binding result [2] | binding result [3] | binding result [4] | binding result [5] | binding result [6] | secreted TNF-alpha levels from primary human T cells (ELISA of culture supernatants) [7] | binding result [8] |
| --- | --- | --- | --- | --- | --- | --- | --- | --- |
| soluble DNA19355 polypeptide (His10-tagged extracellular region, amino acids 52 to 177, expressed in E. coli) (ligand, 125I-labeled (radioiodinated) in the co-precipitation assay, also called soluble DNA19355 ECD molecule; radioiodinated soluble DNA19355 polypeptide) MGHHHHHHHHHHSSGHIDDDDKHMETAKEPCMAKFGPLPSKWQMASSEPPCVNKVSDWKLEILQNGLYLIYGQVAPNANYNDVAPFEVRLYKNKDMIQTLTNKSKIQNVGGTYELHVGDTIDLIFNSEHQVLKNNTYWGIILLANPQFIS | no binding | no binding | no binding | no binding | no binding | no binding | ~20 fold |  |
| full length DNA19355 polypeptide on cells (ligand, also called full-length DNA19355 protein; GLITTER) MCLSHLENMPLSHSRTQGAQRSSWKLWLFCSIVMLLFLCSFSWLIFIFLQLETAKEPCMAKFGPLPSKWQMASSEPPCVNKVSDWKLEILQNGLYLIYGQVAPNANYNDVAPFEVRLYKNKDMIQTLTNKSKIQNVGGTYELHVGDTIDLIFNSEHQVLKNNTYWGIILLANPQFIS |  |  |  |  |  |  |  | no binding |
